From the Immune Epitope Database (IEDB) come the findings set out here.

The target of the assay is HLA-A*02:01. In words: IEDB peptide-MHC binding, purified MHC/competitive/radioactivity; filed as Kd, often an IC50 or EC50 that approximates it; ≥ and ≤ were set here for values at or beyond the usual limits of such assays. Particulars: source organism: Homo sapiens.

pKd: −log10 of the molar value.

With LVLFACSAV, the pKd is 6.34.
The same measure for SLSRFSWGA: 6.04; for FMIAATYNFAV: 8.00; for FLYGALLL: 6.84.
In the case of FLPRHRDTGI, the pKd is not above 5.30.
For the sequence ALTVVWLL, the pKd is 5.15.
Take WLGHPDKFV: the pKd is not above 4.30.
Under YALTVVWLL stands 6.92; under LLVFACSAVPV, 6.00; under WLLVFACSAV, 5.87.
The same measure for SLCADARMYGV: 6.45.
As for ALTGTEKL, the pKd is not above 4.30.
Consider TLSKIFKL, for which the pKd was 5.62.
The same measure for GLCFFGVAL: 5.38.
QMTFHLFIA: the pKd was 5.78.
The same measure for TLVSLLTFMI: 5.58; for CLVGAPFASLC: 5.20.
The same measure for FLYGALLLA: 8.59.
Under WLGHPDKFVGI stands not above 4.60; under FLPRHRDTGIL, not above 4.30; under KVCGSNLLSI, 5.34.
With QMTFHLFI, the negative-log Kd (pKd) is 5.73.
As to LVSLLTFMI, the pKd is 5.72.
Under VLPWIAFPGKV stands 5.89; under WLLVFACSA, not above 4.30; under VVHFFKNIV, not above 4.30.
In the case of ALTGTEKLI, the pKd is not above 4.30.
Under GLLECCARCLV stands 7.02; under SLLTFMIAA, 8.03; under FACSAVPVYI, 6.11.
Under HLFIAAFV stands 5.96.
As to VIHAFQYVI, the pKd was 5.91.
Take YALTVVWLLV: the pKd was 6.18.
The same measure for IAATYNFAV: 7.03; for LVFACSAVPV: 5.79; for RMYGVLPWI: 7.54.
